These results are taken from patent US20200140868.

The target in this data set is T1, Recombinant FANCE (149-536) wild-type, Q9HB96.
T1 chain: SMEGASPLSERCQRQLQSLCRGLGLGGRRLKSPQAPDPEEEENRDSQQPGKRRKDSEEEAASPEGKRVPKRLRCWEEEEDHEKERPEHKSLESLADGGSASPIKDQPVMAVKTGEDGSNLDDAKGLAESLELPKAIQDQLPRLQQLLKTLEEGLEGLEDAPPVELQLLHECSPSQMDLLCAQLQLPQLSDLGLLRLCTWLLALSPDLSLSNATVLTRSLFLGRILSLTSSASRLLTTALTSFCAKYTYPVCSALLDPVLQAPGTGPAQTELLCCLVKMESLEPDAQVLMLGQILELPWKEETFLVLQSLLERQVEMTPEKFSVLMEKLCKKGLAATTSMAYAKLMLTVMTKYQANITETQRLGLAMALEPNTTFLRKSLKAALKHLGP

B1: purified recombinant Chk1 (Upstate Technology) (protein)
chain: MAVPFVEDWDLVQTLGEGAYGEVQLAVNRVTEEAVAVKIVDMKRAVDCPENIKKEICINKMLNHENVVKFYGHRREGNIQYLFLEYCSGGELFDRIEPDIGMPEPDAQRFFHQLMAGVVYLHGIGITHRDIKPENLLLDERDNLKISDFGLATVFRYNNRERLLNKMCGTLPYVAPELLKRREFHAEPVDVWSCGIVLTAMLAGELPWDQPSDSCQEYSDWKEKKTYLNPWKKIDSAPLALLHKILVENPSARITIPDIKKDRWYNKPLKKGAKRPRVTSGGVSESPSGFSKHIQSNLDFSPVNSASSEENVKYSSSQPEPRTGLSLWDTSPSYIDKLVQGISFSQPTCPDHMLLNSQLLGTPGSSQNPWQRLVKRMTRFFTKLDADKSYQCLKETCEKLGYQWKKSCMNQVTISTTDRRNNKLIFKVNLLEMDDKILVDFRLSKGDGLEFKRHFLKIKGKLIDIVSSQKIWLPAT
B1: the “in vitro kinase assay, Western blot with anti-pT346-FANCE and anti-pS374-FANCE” value is listed as “the recombinant FANCE (rFANCEwt) protein phosphorylated by Chk1 in vitro”.
